Experimental data from paper PMC9482650, “Quantitative fragmentomics allow affinity mapping of interactomes” (Nature Communications, 2022).

T1: DLG3_1, Q92796
T1 sequence (Q92796 125-227, limits assumed, looked up): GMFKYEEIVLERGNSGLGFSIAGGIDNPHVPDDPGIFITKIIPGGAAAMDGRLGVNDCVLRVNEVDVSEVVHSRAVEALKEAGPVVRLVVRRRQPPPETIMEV

T2: DVL3, Q92997
T2 sequence (Q92997 244-331, limits assumed, looked up): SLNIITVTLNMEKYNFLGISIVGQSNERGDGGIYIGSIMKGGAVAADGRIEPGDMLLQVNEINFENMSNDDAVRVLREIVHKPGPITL

T3: GRIP1_3, Q9Y3R0
T3 sequence (Q9Y3R0 247-346, limits assumed, looked up): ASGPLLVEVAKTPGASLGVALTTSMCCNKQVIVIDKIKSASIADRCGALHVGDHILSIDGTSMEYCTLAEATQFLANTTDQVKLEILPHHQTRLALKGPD

T4: GRIP1_7, Q9Y3R0
T4 sequence (Q9Y3R0 999-1096, limits assumed, looked up): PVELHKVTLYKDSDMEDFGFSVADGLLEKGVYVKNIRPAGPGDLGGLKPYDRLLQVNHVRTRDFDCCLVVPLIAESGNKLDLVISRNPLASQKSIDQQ

T5: LRRC7, Q96NW7
T5 sequence (Q96NW7 1440-1537, limits assumed, looked up): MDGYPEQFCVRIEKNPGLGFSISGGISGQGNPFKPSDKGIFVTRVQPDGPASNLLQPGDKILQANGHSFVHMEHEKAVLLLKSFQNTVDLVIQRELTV

T6: MPP7, Q5T2T1
T6 sequence (Q5T2T1 134-230, limits assumed, looked up): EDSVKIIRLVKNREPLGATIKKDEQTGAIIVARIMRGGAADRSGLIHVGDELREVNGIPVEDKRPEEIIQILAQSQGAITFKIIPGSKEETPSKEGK

T7: NHERF3_3, Q5T2W1
T7 sequence (Q5T2W1 238-333, limits assumed, looked up): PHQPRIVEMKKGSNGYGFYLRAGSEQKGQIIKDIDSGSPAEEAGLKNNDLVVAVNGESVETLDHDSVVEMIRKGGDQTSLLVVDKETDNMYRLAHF

T8: NHERF3_4, Q5T2W1
T8 sequence (Q5T2W1 373-468, limits assumed, looked up): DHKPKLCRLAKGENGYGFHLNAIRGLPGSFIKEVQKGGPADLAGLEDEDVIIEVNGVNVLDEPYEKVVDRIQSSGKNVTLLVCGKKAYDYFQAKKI

T9: PCLO, Q9Y6V0
T9 sequence (Q9Y6V0 4491-4600, limits assumed, looked up): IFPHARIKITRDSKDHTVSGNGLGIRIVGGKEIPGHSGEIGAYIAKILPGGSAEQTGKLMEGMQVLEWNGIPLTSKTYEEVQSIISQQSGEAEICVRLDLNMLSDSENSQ

T10: RHPN1, Q8TCX5
T10 sequence (Q8TCX5 508-602, limits assumed, looked up): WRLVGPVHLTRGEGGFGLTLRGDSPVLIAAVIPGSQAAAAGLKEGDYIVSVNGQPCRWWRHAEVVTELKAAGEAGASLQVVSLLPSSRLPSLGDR

T11: SNTA1, Q13424
T11 sequence (Q13424 82-180, limits assumed, looked up): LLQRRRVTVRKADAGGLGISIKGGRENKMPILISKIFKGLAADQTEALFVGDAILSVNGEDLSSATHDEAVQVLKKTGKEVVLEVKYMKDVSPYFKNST

T12: SYNJ2BP, P57105
T12 sequence (P57105 8-110, limits assumed, looked up): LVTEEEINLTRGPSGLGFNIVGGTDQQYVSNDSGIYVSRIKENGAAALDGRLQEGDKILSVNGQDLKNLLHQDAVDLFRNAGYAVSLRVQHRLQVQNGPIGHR

T13: TX1BP3, O14907
T13 sequence (O14907 10-122, limits assumed, looked up): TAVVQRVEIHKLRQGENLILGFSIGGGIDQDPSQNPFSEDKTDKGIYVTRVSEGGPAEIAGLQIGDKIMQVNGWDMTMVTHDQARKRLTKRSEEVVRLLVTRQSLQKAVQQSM


How the values were obtained:
Assay in all cases: holdup assay
Design in all cases: key: below the threshold = too weak to quantify, mostly under pKd 3.1 to 4
Settings in all cases: plain residues with an end cap or a label only (N-terminal biotin on a linker: ado-ado)
DLG1_3, Q12959 = biological target: DLG1_3, Q12959
Chain of DLG1_3, Q12959 (Q12959 457-571): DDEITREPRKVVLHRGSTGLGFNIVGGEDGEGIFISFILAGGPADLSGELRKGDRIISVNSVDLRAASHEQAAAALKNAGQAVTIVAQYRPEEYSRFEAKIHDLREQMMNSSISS

DLG2_3, Q15700 = biological target: DLG2_3, Q15700
DLG3_1, Q92796 = biological target: T1, DLG3_1, Q92796
DVL3, Q92997 = biological target: T2, DVL3, Q92997
GRID2IP_2, A4D2P6 = biological target: GRID2IP_2, A4D2P6
Chain of GRID2IP_2, A4D2P6 (A4D2P6 272-370): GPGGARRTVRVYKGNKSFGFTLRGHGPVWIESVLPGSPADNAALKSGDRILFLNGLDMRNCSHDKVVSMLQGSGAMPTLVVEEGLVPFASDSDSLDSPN

GRIP1_3, Q9Y3R0 = biological target: T3, GRIP1_3, Q9Y3R0
GRIP1_7, Q9Y3R0 = biological target: T4, GRIP1_7, Q9Y3R0
GRIP2_7, Q9C0E4 = biological target: GRIP2_7, Q9C0E4
Chain of GRIP2_7, Q9C0E4 (Q9C0E4 934-1023): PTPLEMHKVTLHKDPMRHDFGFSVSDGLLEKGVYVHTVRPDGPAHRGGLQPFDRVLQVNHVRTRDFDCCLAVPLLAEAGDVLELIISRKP

HTRA1, Q92743 = biological target: HTRA1, Q92743
Chain of HTRA1, Q92743 (Q92743 360-477): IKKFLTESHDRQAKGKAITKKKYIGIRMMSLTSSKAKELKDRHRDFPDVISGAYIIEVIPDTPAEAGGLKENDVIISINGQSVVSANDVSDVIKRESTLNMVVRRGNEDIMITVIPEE

Inadl_5, Q8NI35 = biological target: Inadl_5, Q8NI35
Chain of Inadl_5, Q8NI35 (Q8NI35 673-780): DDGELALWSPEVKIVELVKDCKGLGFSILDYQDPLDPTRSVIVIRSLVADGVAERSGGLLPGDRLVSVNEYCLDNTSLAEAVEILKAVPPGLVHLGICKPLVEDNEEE

LIMK2, P53671 = biological target: LIMK2, P53671
Chain of LIMK2, P53671 (P53671 143-248): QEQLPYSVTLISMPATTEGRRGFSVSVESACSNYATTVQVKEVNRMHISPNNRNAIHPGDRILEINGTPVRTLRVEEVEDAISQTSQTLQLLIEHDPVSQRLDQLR

LRRC7, Q96NW7 = biological target: T5, LRRC7, Q96NW7
MAGI2_4, Q86UL8 = biological target: MAGI2_4, Q86UL8
Chain of MAGI2_4, Q86UL8 (Q86UL8 772-865): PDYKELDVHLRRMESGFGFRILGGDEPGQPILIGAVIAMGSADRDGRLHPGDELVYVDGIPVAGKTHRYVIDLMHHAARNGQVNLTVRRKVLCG

MAST1, Q9Y2H9 = biological target: MAST1, Q9Y2H9
Chain of MAST1, Q9Y2H9 (Q9Y2H9 962-1065): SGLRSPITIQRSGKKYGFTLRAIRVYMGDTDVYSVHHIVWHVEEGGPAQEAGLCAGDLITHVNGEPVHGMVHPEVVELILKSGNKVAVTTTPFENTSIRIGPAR

MPP7, Q5T2T1 = biological target: T6, MPP7, Q5T2T1
NHERF3_3, Q5T2W1 = biological target: T7, NHERF3_3, Q5T2W1
NHERF3_4, Q5T2W1 = biological target: T8, NHERF3_4, Q5T2W1
PCLO, Q9Y6V0 = biological target: T9, PCLO, Q9Y6V0
PDZRN4_1, Q6ZMN7 = biological target: PDZRN4_1, Q6ZMN7
Chain of PDZRN4_1, Q6ZMN7 (Q6ZMN7 213-318): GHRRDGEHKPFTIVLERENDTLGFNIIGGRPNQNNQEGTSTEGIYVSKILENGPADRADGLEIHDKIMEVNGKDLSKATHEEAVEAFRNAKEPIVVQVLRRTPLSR

RHPN1, Q8TCX5 = biological target: T10, RHPN1, Q8TCX5
SNTA1, Q13424 = biological target: T11, SNTA1, Q13424
SYNJ2BP, P57105 = biological target: T12, SYNJ2BP, P57105
TX1BP3, O14907 = biological target: T13, TX1BP3, O14907

Binder | pKd (DLG1_3, Q12959) | pKd (DLG2_3, Q15700) | pKd (DLG3_1, Q92796) | pKd (DVL3, Q92997) | pKd (GRID2IP_2, A4D2P6) | pKd (GRIP1_3, Q9Y3R0) | pKd (GRIP1_7, Q9Y3R0) | pKd (GRIP2_7, Q9C0E4) | pKd (HTRA1, Q92743) | pKd (Inadl_5, Q8NI35) | pKd (LIMK2, P53671) | pKd (LRRC7, Q96NW7) | pKd (MAGI2_4, Q86UL8) | pKd (MAST1, Q9Y2H9) | pKd (MPP7, Q5T2T1) | pKd (NHERF3_3, Q5T2W1) | pKd (NHERF3_4, Q5T2W1) | pKd (PCLO, Q9Y6V0) | pKd (PDZRN4_1, Q6ZMN7) | pKd (RHPN1, Q8TCX5) | further results
EFKQTSSFLV [JAM1, Q9Y624] | below the threshold | 3.63 | below the threshold | below the threshold | below the threshold | below the threshold | below the threshold | 3.86 | 5.15 | 3.53 | below the threshold | below the threshold | 4.3 | 3.56 | 3.74 | below the threshold | 3.51 | below the threshold | below the threshold | below the threshold | pKd (SNTA1, Q13424): below the threshold; pKd (SYNJ2BP, P57105): below the threshold; pKd (TX1BP3, O14907): below the threshold
DFKHTKSFII [JAM2, P57087] | below the threshold | 3.75 | below the threshold | 3.67 | below the threshold | below the threshold | below the threshold | 3.88 | 4.97 | below the threshold | below the threshold | below the threshold | below the threshold | 3.7 | 3.75 | below the threshold | below the threshold | below the threshold | below the threshold | below the threshold | pKd (SNTA1, Q13424): below the threshold; pKd (SYNJ2BP, P57105): below the threshold; pKd (TX1BP3, O14907): below the threshold
GNDPDRGTSI [GRID2, O43424] | below the threshold | 3.69 | below the threshold | below the threshold | 4.16 | below the threshold | below the threshold | below the threshold | below the threshold | below the threshold | below the threshold | below the threshold | below the threshold | 3.94 | below the threshold | below the threshold | below the threshold | below the threshold | 3.49 | below the threshold | pKd (SNTA1, Q13424): below the threshold; pKd (SYNJ2BP, P57105): 4.72; pKd (TX1BP3, O14907): below the threshold
SGDGKTSVWI [GJC1, P36383] | below the threshold | 3.83 | below the threshold | 4.23 | 4.33 | below the threshold | below the threshold | 4.37 | 4.93 | 3.55 | below the threshold | 3.49 | below the threshold | below the threshold | below the threshold | below the threshold | 3.52 | below the threshold | below the threshold | below the threshold | pKd (SNTA1, Q13424): below the threshold; pKd (SYNJ2BP, P57105): below the threshold; pKd (TX1BP3, O14907): below the threshold
